Measurements: patent publication US20160252527A1 (Takeda / Millennium, published 2016)

Key:
[1] = molecular target: cynomolgus monkey plasma kallikrein (pKal) (cynomolgus monkey); test: cell-based or functional assay
[2] = molecular target: human plasma kallikrein (pKal) (human, UniProt P03952 20-638); test: cell-based or functional assay
Chain of human plasma kallikrein (pKal) (P03952 20-638 limits assumed): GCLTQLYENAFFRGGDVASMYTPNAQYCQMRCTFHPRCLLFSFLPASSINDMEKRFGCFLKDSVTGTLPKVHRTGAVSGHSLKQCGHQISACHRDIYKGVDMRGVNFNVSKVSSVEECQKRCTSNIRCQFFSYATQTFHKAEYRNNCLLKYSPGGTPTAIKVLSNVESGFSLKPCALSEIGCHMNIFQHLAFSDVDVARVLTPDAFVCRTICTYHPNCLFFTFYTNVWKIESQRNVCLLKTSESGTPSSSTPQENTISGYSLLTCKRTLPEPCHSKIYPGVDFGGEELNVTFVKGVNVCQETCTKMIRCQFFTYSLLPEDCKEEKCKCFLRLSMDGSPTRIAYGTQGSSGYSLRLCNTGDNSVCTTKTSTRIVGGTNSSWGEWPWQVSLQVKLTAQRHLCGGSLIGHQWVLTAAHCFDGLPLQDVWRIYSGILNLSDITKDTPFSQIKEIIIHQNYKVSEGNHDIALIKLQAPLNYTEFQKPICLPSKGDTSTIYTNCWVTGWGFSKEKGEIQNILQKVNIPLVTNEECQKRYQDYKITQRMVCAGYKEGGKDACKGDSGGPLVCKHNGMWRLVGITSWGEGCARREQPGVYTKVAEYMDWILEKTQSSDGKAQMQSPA

Chain of cynomolgus monkey plasma kallikrein (pKal) (cynomolgus monkey) (chain, as listed by the source): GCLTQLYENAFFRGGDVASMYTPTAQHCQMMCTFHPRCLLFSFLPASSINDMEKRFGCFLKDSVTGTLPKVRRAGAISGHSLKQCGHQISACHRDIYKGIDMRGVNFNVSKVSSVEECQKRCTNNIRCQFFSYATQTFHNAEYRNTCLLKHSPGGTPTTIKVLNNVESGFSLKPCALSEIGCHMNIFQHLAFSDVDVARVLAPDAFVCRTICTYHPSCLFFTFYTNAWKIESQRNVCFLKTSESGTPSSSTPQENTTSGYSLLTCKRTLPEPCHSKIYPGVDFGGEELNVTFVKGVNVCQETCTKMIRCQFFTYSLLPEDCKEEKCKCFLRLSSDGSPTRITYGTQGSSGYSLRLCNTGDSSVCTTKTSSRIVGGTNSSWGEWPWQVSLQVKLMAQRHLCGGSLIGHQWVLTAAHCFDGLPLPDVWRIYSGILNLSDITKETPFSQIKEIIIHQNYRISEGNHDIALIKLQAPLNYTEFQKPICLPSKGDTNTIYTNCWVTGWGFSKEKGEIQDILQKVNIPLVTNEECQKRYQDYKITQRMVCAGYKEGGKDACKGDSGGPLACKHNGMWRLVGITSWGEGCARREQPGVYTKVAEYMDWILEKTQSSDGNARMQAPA

Row | percent inhibition of pKal activity (Pro-Phe-Arg-AMC substrate) after ex vivo FXIIa activation of plasma of a dosed monkey, drug level ~265 nM [1] [%] | % Reduction of one-chain HMWK (XIIa activated plasma, 9 nM DX2930; Protein Simple Western) [2] [%] | % Reduction of one-chain HMWK (XIIa activated plasma, 27 nM DX2930; Protein Simple Western) [2] [%] | % Reduction of one-chain HMWK (XIIa activated plasma, 80 nM DX2930; Protein Simple Western) [2] [%] | % Reduction of one-chain HMWK (XIIa activated plasma, 240 nM DX2930; Protein Simple Western) [2] [%] | % Reduction of one-chain HMWK (XIIa activated plasma, 480 nM DX2930; Protein Simple Western) [2] [%] | Area of the one-chain HMWK peak (XIIa activated plasma, 9 nM DX2930; Protein Simple Western) [2] | Area of the one-chain HMWK peak (XIIa activated plasma, 27 nM DX2930; Protein Simple Western) [2] | Area of the one-chain HMWK peak (XIIa activated plasma, 80 nM DX2930; Protein Simple Western) [2] | Area of the one-chain HMWK peak (XIIa activated plasma, 240 nM DX2930; Protein Simple Western) [2] | Area of the one-chain HMWK peak (XIIa activated plasma, 480 nM DX2930; Protein Simple Western) [2] | maximal inhibition of pKal activity (PFR-AMC substrate), plasma of dose group 3 (1.0 mg/kg DX-2930) [2] [%] | maximal inhibition of pKal activity (PFR-AMC substrate), plasma of dose group 4 (3.0 mg/kg DX-2930) [2] [%] | IC50 (read off the curve) [2] [nM] | Binder
1 | 80 | 92.1 | 90.4 | 79 | 63.9 | 54.9 | 842 | 1030 | 2230 | 3840 | 4800 | 19 | 36 | – | DX-2930 (antibody, INN chains, looked up, V domains shown) VH: EVQLLESGGGLVQPGGSLRLSCAASGFTFSHYIMMWVRQAPGKGLEWVSGIYSSGGITVYADSVKGRFTISRDNSKNTLYLQMNSLRAEDTAVYYCAYRRIGVPRRDEFDIWGQGTMVTVSS VL: DIQMTQSPSTLSASVGDRVTITCRASQSISSWLAWYQQKPGKAPKLLIYKASTLESGVPSRFSGSGSGTEFTLTISSLQPDDFATYYCQQYNTYWTFGQGTKVEIK
2 | – | – | – | – | – | – | – | – | – | – | – | – | – | ~400 | alpha 2 macroglobulin (α2M) (other, UniProt P01023 24-1474, looked up) SVSGKPQYMVLVPSLLHTETTEKGCVLLSYLNETVTVSASLESVRGNRSLFTDLEAENDVLHCVAFAVPKSSSNEEVMFLTVQVKGPTQEFKKRTTVMVKNEDSLVFVQTDKSIYKPGQTVKFRVVSMDENFHPLNELIPLVYIQDPKGNRIAQWQSFQLEGGLKQFSFPLSSEPFQGSYKVVVQKKSGGRTEHPFTVEEFVLPKFEVQVTVPKIITILEEEMNVSVCGLYTYGKPVPGHVTVSICRKYSDASDCHGEDSQAFCEKFSGQLNSHGCFYQQVKTKVFQLKRKEYEMKLHTEAQIQEEGTVVELTGRQSSEITRTITKLSFVKVDSHFRQGIPFFGQVRLVDGKGVPIPNKVIFIRGNEANYYSNATTDEHGLVQFSINTTNVMGTSLTVRVNYKDRSPCYGYQWVSEEHEEAHHTAYLVFSPSKSFVHLEPMSHELPCGHTQTVQAHYILNGGTLLGLKKLSFYYLIMAKGGIVRTGTHGLLVKQEDMKGHFSISIPVKSDIAPVARLLIYAVLPTGDVIGDSAKYDVENCLANKVDLSFSPSQSLPASHAHLRVTAAPQSVCALRAVDQSVLLMKPDAELSASSVYNLLPEKDLTGFPGPLNDQDNEDCINRHNVYINGITYTPVSSTNEKDMYSFLEDMGLKAFTNSKIRKPKMCPQLQQYEMHGPEGLRVGFYESDVMGRGHARLVHVEEPHTETVRKYFPETWIWDLVVVNSAGVAEVGVTVPDTITEWKAGAFCLSEDAGLGISSTASLRAFQPFFVELTMPYSVIRGEAFTLKATVLNYLPKCIRVSVQLEASPAFLAVPVEKEQAPHCICANGRQTVSWAVTPKSLGNVNFTVSAEALESQELCGTEVPSVPEHGRKDTVIKPLLVEPEGLEKETTFNSLLCPSGGEVSEELSLKLPPNVVEESARASVSVLGDILGSAMQNTQNLLQMPYGCGEQNMVLFAPNIYVLDYLNETQQLTPEIKSKAIGYLNTGYQRQLNYKHYDGSYSTFGERYGRNQGNTWLTAFVLKTFAQARAYIFIDEAHITQALIWLSQRQKDNGCFRSSGSLLNNAIKGGVEDEVTLSAYITIALLEIPLTVTHPVVRNALFCLESAWKTAQEGDHGSHVYTKALLAYAFALAGNQDKRKEVLKSLNEEAVKKDNSVHWERPQKPKAPVGHFYEPQAPSAEVEMTSYVLLAYLTAQPAPTSEDLTSATNIVKWITKQQNAQGGFSSTQDTVVALHALSKYGAATFTRTGKAAQVTIQSSGTFSSKFQVDNNNRLLLQQVSLPELPGEYSMKVTGEGCVYLQTSLKYNILPEKEEFPFALGVQTLPQTCDEPKAHTSFQISLSVSYTGSRSASNMAIVDVKMVSGFIPLKPTVKMLERSNHVSRTEVSSNHVLIYLDKVSNQTLSLFFTVLQDVPVRDLKPAIVKVYDYYETDEFAIAEYNAPCSKDLGNA
